According to patent US6416758:

Target: VEGF:sFlk-1 complex (VEGF associated with its receptor) (human; mouse) (UniProt P15692)
Test: capture ELISA: antibody coated on wells, VEGF complexed with biotinylated sFlk-1 titrated, peroxidase-avidin; concentration giving 50% maximal binding; extrapolated value (*)

Chain of A4.6.1 (mouse anti-human VEGF monoclonal antibody, Genentech) (VH): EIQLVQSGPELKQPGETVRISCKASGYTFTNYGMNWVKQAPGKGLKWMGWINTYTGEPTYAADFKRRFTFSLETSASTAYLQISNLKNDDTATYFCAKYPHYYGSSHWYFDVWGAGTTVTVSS
Chain of A4.6.1 (mouse anti-human VEGF monoclonal antibody, Genentech) (VL): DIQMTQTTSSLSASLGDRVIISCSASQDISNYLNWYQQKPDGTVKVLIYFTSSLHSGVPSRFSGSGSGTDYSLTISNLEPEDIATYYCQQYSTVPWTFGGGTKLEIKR
Chain of VEGF:sFlk-1 complex (VEGF associated with its receptor) (human; mouse) (P15692 other isoform, or with tags, fused parts or gaps limits assumed, chain 1 of 2): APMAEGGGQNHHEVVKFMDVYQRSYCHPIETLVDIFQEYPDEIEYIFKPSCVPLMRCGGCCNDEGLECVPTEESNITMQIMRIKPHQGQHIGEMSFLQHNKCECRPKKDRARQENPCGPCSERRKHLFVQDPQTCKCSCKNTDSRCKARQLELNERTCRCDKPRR
Chain of VEGF:sFlk-1 complex (VEGF associated with its receptor) (human; mouse) (P35918 20-762 limits assumed, chain 2 of 2, further chain): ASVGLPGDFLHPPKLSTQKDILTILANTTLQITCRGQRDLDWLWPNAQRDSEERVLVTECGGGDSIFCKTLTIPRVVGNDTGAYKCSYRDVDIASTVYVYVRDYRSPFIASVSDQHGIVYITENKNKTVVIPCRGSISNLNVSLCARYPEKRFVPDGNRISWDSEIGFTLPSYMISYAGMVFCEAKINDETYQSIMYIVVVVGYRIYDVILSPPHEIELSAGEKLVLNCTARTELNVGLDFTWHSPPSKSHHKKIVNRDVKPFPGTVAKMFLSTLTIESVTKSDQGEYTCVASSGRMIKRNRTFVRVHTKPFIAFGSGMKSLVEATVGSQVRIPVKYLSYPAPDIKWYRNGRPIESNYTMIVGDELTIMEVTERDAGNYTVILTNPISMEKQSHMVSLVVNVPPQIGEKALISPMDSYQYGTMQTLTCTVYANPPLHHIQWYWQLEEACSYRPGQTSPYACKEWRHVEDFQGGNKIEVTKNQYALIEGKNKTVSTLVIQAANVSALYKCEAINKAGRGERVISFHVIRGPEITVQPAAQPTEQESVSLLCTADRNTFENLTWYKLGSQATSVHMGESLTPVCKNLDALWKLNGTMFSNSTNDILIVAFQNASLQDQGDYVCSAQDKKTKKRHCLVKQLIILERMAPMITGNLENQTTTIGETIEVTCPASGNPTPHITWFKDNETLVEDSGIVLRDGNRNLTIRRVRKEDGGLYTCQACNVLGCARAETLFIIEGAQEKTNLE

Work on “A4.6.1 (mouse anti-human VEGF monoclonal antibody, Genentech)” yielded an EC50 of 500 nM.
